Assay results as given in PMC9520036, “The heme-regulated inhibitor kinase requires dimerization for heme-sensing activity” (The Journal of Biological Chemistry, 2022).

B1: HRI-ΔN-ΔpCC (Δ1-143, Δ620-630), untreated (phosphorylated as purified) (domain or fragment, human, UniProt Q9BQI3 144-619, looked up)
chain: SRIQKIRSREVALEAQTSRYLNEFEELAILGKGGYGRVYKVRNKLDGQYYAIKKILIKGATKTVCMKVLREVKVLAGLQHPNIVGYHTAWIEHVHVIQPRADRAAIELPSLEVLSDQEEDREQCGVKNDESSSSSIIFAEPTPEKEKRFGESDTENQNNKSVKYTTNLVIRESGELESTLELQENGLAGLSASSIVEQQLPLRRNSHLEESFTSTEESSEENVNFLGQTEAQYHLMLHIQMQLCELSLWDWIVERNKRGREYVDESACPYVMANVATKIFQELVEGVFYIHNMGIVHRDLKPRNIFLHGPDQQVKIGDFGLACTDILQKNTDWTNRNGKRTPTHTSRVGTCLYASPEQLEGSEYDAKSDMYSLGVVLLELFQPFGTEMERAEVLTGLRTGQLPESLRKRCPVQAKYIQHLTRRNSSQRPSAIQLLQSELFQNSGNVNLTLQMKIIEQEKEIAELKKQLNLLSQDKG
modifications: autophosphorylated as purified from E. coli (sites not given)
notes: The limits 144-619 follow from the printed deletions Δ1-143 and Δ620-630; also called His-HRI-ΔN-ΔpCC; untreated HRI-ΔN-ΔpCC
B2: HRI-ΔN-ΔpCC (Δ1-143, Δ620-630), dephosphorylated with lambda phosphatase (domain or fragment, human, UniProt Q9BQI3 144-619, looked up)
chain: B1 chain
notes: Human HRI, UniProt Q9BQI3, residues 144-619 (Δ1-143, Δ620-630); phosphate groups removed with lambda phosphatase; The limits 144-619 follow from the printed deletions Δ1-143 and Δ620-630; also called dephosphorylated HRI-ΔN-ΔpCC; source: E. coli BL21-Rosetta(DE3), purified, incubated with lambda phosphatase, then Superdex 200

Columns and labels:
[1] = target: T1, heme-regulated inhibitor (HRI) (Homo sapiens, UniProt Q9BQI3); experiment: γ[…] ATP filter-paper kinase assay with eIF2α peptide; supported by DSF (~[…] °C shift) and DSC stabilization; format: biochemical
T1 construct: gene EIF2AK1; HRI-FL (full-length)

[2] = target: the molecule itself; experiment: AUC; sedimentation velocity; samples at an absorbance of 0.5 at 280 nm, 20 °C, 42,000 rpm, c(s) distribution model in SEDFIT; self-association (oligomeric state from fit MW)

T1 sequence (Q9BQI3 whole entry): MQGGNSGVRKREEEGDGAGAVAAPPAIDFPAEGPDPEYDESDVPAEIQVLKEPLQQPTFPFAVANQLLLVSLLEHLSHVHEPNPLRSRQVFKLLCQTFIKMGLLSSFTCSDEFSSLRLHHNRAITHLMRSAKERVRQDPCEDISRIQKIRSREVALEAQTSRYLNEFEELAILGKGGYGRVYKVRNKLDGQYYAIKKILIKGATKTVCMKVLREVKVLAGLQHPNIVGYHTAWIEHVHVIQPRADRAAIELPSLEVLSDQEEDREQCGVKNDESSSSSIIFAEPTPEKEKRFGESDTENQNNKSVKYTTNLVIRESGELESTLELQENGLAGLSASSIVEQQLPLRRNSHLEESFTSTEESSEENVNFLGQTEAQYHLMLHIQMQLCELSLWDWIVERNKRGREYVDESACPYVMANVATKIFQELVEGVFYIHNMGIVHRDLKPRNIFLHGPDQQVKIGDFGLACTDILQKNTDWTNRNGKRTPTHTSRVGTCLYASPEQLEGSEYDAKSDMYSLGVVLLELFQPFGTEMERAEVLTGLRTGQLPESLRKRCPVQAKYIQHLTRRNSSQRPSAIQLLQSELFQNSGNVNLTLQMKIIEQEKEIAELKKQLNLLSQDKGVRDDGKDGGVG

Molecule	IC50 [1] [nM]	stoichiometry N [2]
O=c1c(O)c(-c2ccc(O)c(O)c2)oc2cc(O)cc(O)c12 [quercetin]	1520	
B1		2
B2		2
